These results are taken from the RNAGym collection of RNA variant scans (doi:10.7554/elife.90254).

Sequences and labels used below:
B1: LINE1-full (parent)
chain: UACGUAGGUGGUUUUCCCCUGAUAGUGCUAAGGGGGCCUGGAAGUUUGGACUGGGCAGAGCUCAACACAGCGUGGCAAAGUGGCUGUGGCUAGACUGCCUCUCUGGAUUCCUCGUCACUCAGCAGGGCAUCUCUGAGAGAAAUGCC

Variants of B1 are the subject of the series. Nature of the series: self-cleavage, relative activity (ratio to wild type); higher = more cleavage; in vitro, sequencing; the parent is a self-cleaving ribozyme.
Turning to U20G A42G, the self-cleavage stood at 0.67.
As to U20C G135A, the self-cleavage came to 1.48.
With A22G G80A the figure was 2.37; with A22U A57U, 0.12.
With A22U A57G, the self-cleavage turned out to be 0.84.
As for A22U G106A, the self-cleavage was 1.55.
With A22U C118U the figure was 1.47; with U20C G114A, 1.57.
For the variant U20C A117U, the self-cleavage amounted to 1.61.
The value for U20G U85G was 0.1.
With U20G U85C the figure was 0.18; with A22G G48U, 1.05; with U20C U96A, 0.12.
The value for A22G U45C was 1.33; that for U20G A78G was 1.1.
For the variant G21A U73C, the self-cleavage came to 1.41.
The value for A22C A50U was 1.02; that for A22C U96C was 0.26; that for U20C C110A was 0.41.
For U20C C66U, the self-cleavage is 0.
With U20G A69U, the self-cleavage is 0.
With U23A A65G, the self-cleavage came out at 0.1.
Consider G21A A124G, for which the self-cleavage came to 0.9.
The value for A22C A30G was 1.18.
Regarding A22G A57G, the self-cleavage was 0.67.
With A22G A57U, the self-cleavage is 0.2.
With A22C A42G the figure was 1.86; with U20C C133U, 1.16; with A22U U115A, 0.63.
The value for U20C C146U was 1.27; that for A22C U115A was 1.46.
Regarding G21C U132C, the self-cleavage was determined as 1.27.
Regarding A22U U62C, the self-cleavage is 0.13.
As for U20C C118U, the self-cleavage came to 1.2.
For U20C C118G, the self-cleavage stood at 1.45.
With A22C U143C, the self-cleavage stood at 1.41.
For G21U U81C, the self-cleavage came out at 1.01.
With U23A A107U the figure was 1.1; with U20G A64U, 0.71.
For the variant U20C C95A, the self-cleavage was 0.09.
With U20C C95U the figure was 0.27; with U20C A141U, 1.36.
With U20C A141G the figure was 1.54; with G21A U132C, 1.63.
On to A22G G106U, for which the self-cleavage was 0.73.
Regarding A22C A129G, the self-cleavage came to 1.39.
For U20G U39C, the self-cleavage was determined as 0.98.
The value for U20G U102C was 1.73; that for A22U U109A was 1.34.
As to A22U U109C, the self-cleavage was 0.91.
With U20C G25A the figure was 0.84.
The value for G21A G137A was 1.21; that for A22G A65G was 0.08; that for G21A U115G was 0.96.
As to G21A U115C, the self-cleavage amounted to 2.12.
Consider A22U A50G, for which the self-cleavage was 1.01.
As to A22U U85C, the self-cleavage turned out to be 0.26.
Take A22G A50G: the self-cleavage turned out to be 0.97.
With U23A A121G, the self-cleavage was 1.41.
The value for G21A U52A was 1.76.
The value for A22G C128U was 1.26; that for G21U U45C was 1.44; that for A22U U46C was 1.34.
The value for A22G U81C was 1.18.
On to A22G U81G, for which the self-cleavage was determined as 1.03.
The value for A22G U132C was 1.11.
For A22G U132A, the self-cleavage is 0.48.
On to A22G A136G, for which the self-cleavage was 1.17.
Turning to A22G A136C, the self-cleavage is 1.49.
As to A22G A136U, the self-cleavage turned out to be 0.87.
With A22U A65U the figure was 0.18.
Take U20C C116A: the self-cleavage was determined as 1.5.
As to A22G C131U, the self-cleavage came to 1.03.
The value for A22G C131G was 1.8; that for G21A U62C was 0.05; that for U20G G27A was 0.92.
The value for A22G G126A was 1.74.
The value for U20C C128U was 1.24; that for U23A A138G was 0.76; that for A22U A67C was 0.05.
For G21A A57U, the self-cleavage was 0.02.
The value for G21A A57C was 0.09; that for U20C A124G was 1.06.
With U20C A124U the figure was 1.17; with U23A A64C, 0.48.
For the variant A22G C63A, the self-cleavage was 0.05.
Regarding U23A A31G, the self-cleavage is 0.93.
Take U23A A31U: the self-cleavage came to 0.37.
With U20G U115C the figure was 1.95; with A22G A59G, 0.16; with A22G G83U, 0.58.
For the variant U20C U143C, the self-cleavage is 1.29.
For A22U A94U, the self-cleavage came to 0.17.
With U23A A43G the figure was 1.27.
On to G21U A94U, for which the self-cleavage amounted to 0.39.
Regarding U23A A79G, the self-cleavage came to 1.31.
With A22U A59G the figure was 0.07; with A22G U26C, 0.83.
The value for A22G U26G was 0.75; that for A22G U26A was 1.4.
The value for A22G G36C was 0.37; that for U20C G75A was 1.16; that for U20C U45G was 1.38.
In the case of U20C U45A, the self-cleavage was determined as 1.2.
The value for U20C U45C was 1.19.
With A22U U119A the figure was 1.46.
On to A22U U119C, for which the self-cleavage amounted to 1.52.
With G21A G114A the figure was 2.07; with A22U A129U, 1.47; with G21A U100C, 1.72.
The value for U20C U39G was 0.8.
The value for A22C U102C was 1.55.
With U23A A140G, the self-cleavage is 1.41.
Take U20G A140U: the self-cleavage was 1.23.
With U20G A140G the figure was 0.96; with U20G G74A, 1.29.
With G21U the figure was 1.1; with G21C, 0.69.
G21A: the self-cleavage turned out to be 1.14.
The value for U20C G86A was 0.11; that for A22G C101A was 1.47; that for A22U U45A was 0.83.
With A22U U52C the figure was 1.73.
With G21U A136G the figure was 1.84; with U20C U130G, 1.63; with U20C U130A, 1.65.
As for U20C U130C, the self-cleavage amounted to 1.77.
With A22G U112C the figure was 1.25.
With A22G U112A the figure was 1.84; with A22G A142U, 0.92; with A22U G60U, 0.05.
As for U23A A94G, the self-cleavage is 0.47.
A22G G137A: the self-cleavage turned out to be 1.52.
The value for U20C C101U was 1.11; that for A22G C98U was 0.64; that for A22G G27A was 1.
G21U G127A: the self-cleavage was found to be 1.99.
The value for A22U C38A was 0.64; that for U20G U100C was 1.06.
For the variant A22U A140G, the self-cleavage worked out at 0.71.
With U20C G44U the figure was 1.06; with A22G G33A, 0.65; with U20G A129C, 1.95.
Regarding A22U U108A, the self-cleavage was 1.08.
The value for A22G U109A was 1.13; that for A22C U46A was 2.21.
Take A22U G105A: the self-cleavage was determined as 1.29.
With U20G G127A the figure was 1.37.
As to A22U U112A, the self-cleavage is 1.19.
The value for G21U U73C was 2.04; that for A22U U29C was 1.24.
The value for U20C G72U was 0.9; that for A22G A67U was 0.23.
With A22G A67G the figure was 0.63.
As for A22U G49A, the self-cleavage stood at 1.08.
For A22G U87A, the self-cleavage is 0.22.
Turning to A22G U87C, the self-cleavage came to 0.28.
With U20C A140U, the self-cleavage came out at 0.95.
For U20C A140C, the self-cleavage worked out at 2.05.
For A22G C37G, the self-cleavage stood at 0.79.
For U20G U29A, the self-cleavage came to 0.8.
U20G U29C: the self-cleavage was 1.36.
As for A22U A117U, the self-cleavage was determined as 1.36.
A22G U73G: the self-cleavage worked out at 1.49.
Take A22G U73C: the self-cleavage amounted to 1.37.
The value for U20G U52A was 1.36; that for U20G U96G was 0.
